Reference: IntAct's records for PubMed 21481780

B1: Phosphotransferase RcsD (Escherichia coli (strain K12)), P39838 (parent)
chain: MRQKETTATTRFSLLPGSITRFFLLLIIVLLVTMGVMVQSAVNAWLKDKSYQIVDITHAIQKRVDNWRYVTWQIYDNIAATTSPSSGEGLQETRLKQDVYYLEKPRRKTEALIFGSHDNSTLEMTQRMSTYLDTLWGAENVPWSMYYLNGQDNSLVLISTLPLKDLTSGFKESTVSDIVDSRRAEMLQQANALDERESFSNMRRLAWQNGHYFTLRTTFNQPGHLATVVAFDLPINDLIPPGMPLDSFRLEPDATATGNNDNEKEGTDSVSIHFNSTKIEISSALNSTDMRLVWQVPYGTLLLDTLQNILLPLLLNIGLLALALFGYTTFRHFSSRSTENVPSTAVNNELRILRAINEEIVSLLPLGLLVHDQESNRTVISNKIADHLLPHLNLQNITTMAEQHQGIIQATINNELYEIRMFRSQVAPRTQIFIIRDQDREVLVNKKLKQAQRLYEKNQQGRMIFMKNIGDALKEPAQSLAESAAKLNAPESKQLANQADVLVRLVDEIQLANMLADDSWKSETVLFSVQDLIDEVVPSVLPAIKRKGLQLLINNHLKAHDMRRGDRDALRRILLLLMQYAVTSTQLGKITLEVDQDESSEDRLTFRILDTGEGVSIHEMDNLHFPFINQTQNDRYGKADPLAFWLSDQLARKLGGHLNIKTRDGLGTRYSVHIKMLAADPEVEEEEERLLDDVCVMVDVTSAEIRNIVTRQLENWGATCITPDERLISQDYDIFLTDNPSNLTASGLLLSDDESGVREIGPGQLCVNFNMSNAMQEAVLQLIEVQLAQEEVTESPLGGDENAQLHASGYYALFVDTVPDDVKRLYTEAATSDFAALAQTAHRLKGVFAMLNLVPGKQLCETLEHLIREKDVPGIEKYISDIDSYVKSLL
partner: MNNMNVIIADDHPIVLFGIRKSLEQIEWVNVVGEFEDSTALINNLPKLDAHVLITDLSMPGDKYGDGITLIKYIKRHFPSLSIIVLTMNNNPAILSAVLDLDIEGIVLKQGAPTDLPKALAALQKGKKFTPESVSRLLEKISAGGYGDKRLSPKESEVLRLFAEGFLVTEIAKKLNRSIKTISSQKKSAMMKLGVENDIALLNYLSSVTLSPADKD

Variants of: B1
Conditions: with rcsb_ecoli rcsB

effect of a mutation on the interaction | Variant
decreasing interaction | N715A;Q776A;L780A
